Measurements reported in patent US20090239794A1, “HCV F PROTEIN AND USES THEREOF” (priority 2004, published 2009).
Where “and” joins values, the source holds several entries; their conditions need not be identical. Identical values can stand only once.

Tested on: C57Bl/6 mice
Experiment: Protocol 2: ARFP immunization of mice, total anti-ARFP Ig ELISA
Details: for Titer (ARFP-specific Ig) / ELISA optical density (total anti-ARFP Ig), serum dilution 1/50 / ELISA optical density (total anti-ARFP Ig), serum dilution 1/100 / ELISA optical density (total anti-ARFP Ig), serum dilution 1/200 / ELISA optical density (total anti-ARFP Ig), serum dilution 1/400 / ELISA optical density (total anti-ARFP Ig), serum dilution 1/800 / ELISA optical density (total anti-ARFP Ig), serum dilution 1/1600: individual mice
[1] = 1st immunization (day 0), blood taken prior to immunization, listed as ARFP
[2] = 2nd immunization (day 14), blood taken prior to immunization, listed as ARFP
[3] = 3d immunization (day 29), blood taken prior to immunization, listed as ARFP
[4] = Sacrifice (day 52), listed as ARFP

B1: Fmut8Δ11: truncated recombinant HCV-1a F protein lacking the first 11 N-terminal residues shared with core; SEQ ID NO: 12; produced in E. coli (protein)
chain: PNVTPTVAHRTSSSRVAVRSLVEFTCCRAGALDWVCARRGRLPSGRNLEVDVSLSPRHVGPRAGPGLSPGTLGPSMAMRAADGRDGSCLPVALGLVGAPQTPGVGRAIWVRSSIPSRAASPTSWGTYRSSAPPLEALPGPWRMASGFWRTA
modifications: Hepatitis C virus
- Titer (ARFP-specific Ig) (1st immunization (day 0), blood taken prior to immunization): 0
- ELISA optical density (total anti-ARFP Ig), serum dilution 1/50 [1]: 0.211 and 0.209 and 0.199 and 0.218 and 0.323 and 0.278 and 0.229 and 0.166 and 0.236 and 0.243 and 0.247 and 0.208 and 0.206 and 0.205 and 0.217
- ELISA optical density (total anti-ARFP Ig), serum dilution 1/100 [1]: 0.128 and 0.115 (2×) and 0.174 and 0.208 and 0.186 and 0.171 and 0.152 and 0.161 (2×) and 0.145 and 0.134 and 0.132 and 0.142 and 0.127
- ELISA optical density (total anti-ARFP Ig), serum dilution 1/200 [1]: 0.123 and 0.150 and 0.128 and 0.136 (2×) and 0.114 and 0.111 and 0.121 and 0.113 (2×) and 0.104 and 0.117 and 0.164 and 0.144 and 0.140
- ELISA optical density (total anti-ARFP Ig), serum dilution 1/400 [1]: 0.132 and 0.164 and 0.114 and 0.118 and 0.116 and 0.121 and 0.133 and 0.115 and 0.104 and 0.110 and 0.120 and 0.128 and 0.191 and 0.138 and 0.126
- ELISA optical density (total anti-ARFP Ig), serum dilution 1/800 [1]: 0.119 and 0.138 and 0.113 and 0.118 and 0.115 (2×) and 0.117 and 0.128 and 0.108 and 0.103 and 0.105 and 0.123 and 0.134 and 0.137 and 0.114
- ELISA optical density (total anti-ARFP Ig), serum dilution 1/1600 [1]: 0.138 and 0.122 and 0.109 (2×) and 0.110 and 0.116 and 0.124 and 0.108 and 0.106 and 0.107 and 0.105 and 0.119 and 0.129 and 0.127 and 0.114
- ELISA optical density (total anti-ARFP Ig), serum dilution 1/50 [2]: 0.370 and 0.625 and 0.303 and 0.339 and 0.421 and 3.852 and 0.552 and 0.270 and 2.758 and 0.505 and >4.000 (3×) and 0.189 and 3.567
- ELISA optical density (total anti-ARFP Ig), serum dilution 1/100 [2]: 0.187 and 0.306 and 0.155 and 0.164 and 0.156 and 1.842 and 0.204 and 0.153 and 0.560 and 0.191 and 3.323 and 0.141 and 3.184 and >4.000 and 1.876
- ELISA optical density (total anti-ARFP Ig), serum dilution 1/200 [2]: 0.168 and 0.183 and 0.128 and 0.126 and 0.133 and 1.337 and 0.149 and 0.124 and 0.295 and 0.144 and 2.201 and 0.112 and 3.227 and >4.000 and 1.851
- ELISA optical density (total anti-ARFP Ig), serum dilution 1/400 [2]: 0.173 and 0.152 and 0.136 and 0.129 and 0.122 and 0.777 and 0.133 and 0.123 and 0.204 and 0.131 and 1.212 and 0.111 and 1.433 and 2.473 and 0.736
- ELISA optical density (total anti-ARFP Ig), serum dilution 1/800 [2]: 0.156 and 0.130 and 0.123 and 0.121 (2×) and 0.539 and 0.125 and 0.124 and 0.173 and 0.122 and 0.622 and 0.113 and 0.790 and 2.199 and 0.427
- ELISA optical density (total anti-ARFP Ig), serum dilution 1/1600 [2]: 0.137 and 0.126 and 0.118 and 0.122 and 0.119 and 0.546 and 0.125 and 0.146 and 0.154 and 0.115 and 0.337 and 0.113 and 0.462 and 1.296 and 0.271
- Titer (ARFP-specific Ig) [2]: 0 (9×) and 200 (2×) and 50 and 400 (2×) and >1600
- ELISA optical density (total anti-ARFP Ig), serum dilution 1/50 [3]: 3.831 and 3.849 and 3.373 and 3.573 and 2.987 and 2.874 and 2.626 and 3.470 and 3.517 and 1.225 and 3.635 and 0.801 and 3.936 and 3.926 and >4.000
- ELISA optical density (total anti-ARFP Ig), serum dilution 1/100 [3]: 3.525 and 3.898 and 2.898 and 1.264 and 0.982 and 1.468 and 1.197 and 2.613 and 1.648 and 0.560 and >4.000 (2×) and 0.304 and 3.959 and 3.978
- ELISA optical density (total anti-ARFP Ig), serum dilution 1/200 [3]: 2.387 and 3.359 and 1.364 and 1.013 and 0.684 and 0.906 and 0.657 and 3.189 and 1.518 and 0.303 and 3.924 and 0.240 and 3.936 and 3.853 and >4.000
- ELISA optical density (total anti-ARFP Ig), serum dilution 1/400 [3]: 1.910 and 2.646 and 1.019 and 0.830 and 0.473 and 0.493 and 0.397 and 3.666 and 1.315 and 0.291 and 3.086 and 0.174 and 3.874 and 3.765 and >4.000
- ELISA optical density (total anti-ARFP Ig), serum dilution 1/800 [3]: 1.316 and 1.965 and 0.647 and 0.556 and 0.366 and 0.536 and 0.266 and 3.106 and 1.194 and 0.218 and >4.000 and 0.188 and 3.874 and 3.903 and 3.429
- ELISA optical density (total anti-ARFP Ig), serum dilution 1/1600 [3]: 0.770 and 1.960 and 0.558 and 0.428 and 0.284 and 0.513 and 0.298 and 3.423 and 1.055 and 0.187 and 3.573 and 0.266 and 3.907 and 3.939 and 3.210
- Titer (ARFP-specific Ig) [3]: 800 and >1600 (7×) and 400 (2×) and 100 (2×) and 200 and 50 and 0
- ARFP-specific Ig titer, mean+/−standard deviation (Protocol 2, before the 2nd immunization): 190.0+/−401.7
- anti-ARFP Ig titer, mean+/−standard deviation (Protocol 2, day 29): 883.3+/−694.7
- anti-ARFP Ig titer, mean+/−standard deviation (Protocol 2, day 52): 1493+/−272.0
- ELISA optical density (total anti-ARFP Ig), serum dilution 1/50 [4]: 3.593 and 3.623 and 2.931 and 3.934 and 3.865 and >4.000 and 3.796 and 3.843 and 3.456 and 3.855 and 3.717 and 3.534 and 3.636 and 3.780 and 3.783
- ELISA optical density (total anti-ARFP Ig), serum dilution 1/100 [4]: 3.071 and 3.581 and 2.555 and 3.459 and >4.000 (2×) and 3.873 and 3.848 and 3.622 and 3.966 and 1.524 and 2.193 and 3.518 and 2.628 and 3.952
- ELISA optical density (total anti-ARFP Ig), serum dilution 1/200 [4]: 1.902 and 1.744 and 1.431 and 2.418 and 2.646 and >4.000 and 3.807 and 3.818 and 3.641 and 3.184 and 3.740 and 1.047 and 2.844 and 2.829 and 3.142
- ELISA optical density (total anti-ARFP Ig), serum dilution 1/400 [4]: 1.187 and 1.526 and 0.987 and 1.257 and 2.378 and >4.000 and 3.802 and 3.891 and 3.742 and 3.885 and 3.660 and 1.001 and 3.548 and 3.151 and 3.752
- ELISA optical density (total anti-ARFP Ig), serum dilution 1/800 [4]: 1.110 and 1.341 and 0.818 and 1.093 and 2.236 and >4.000 and 3.867 and 3.833 and 3.665 and 3.171 and 3.717 and 0.856 and 3.406 and 3.707 and 3.620
- ELISA optical density (total anti-ARFP Ig), serum dilution 1/1600 [4]: 1.589 and 1.086 and 1.084 and 0.771 and 1.427 and >4.000 and 3.813 and 3.843 and 3.612 and 3.055 and 3.832 and 0.510 and 3.562 and 3.780 and 3.976
- Titer (ARFP-specific Ig) [4]: >1600 (13×) and 800 (2×)
